The target of this experiment is human ACE2 receptor protein (hACE2) pre-coated on the plate of the GenScript sVNT C-Pass Kit (human) (UniProt Q9BYF1). As to the kind of experiment: modified GenScript sVNT (FIG. 28), competitor HRP-RBD.
Sequence of UniProt Q9BYF1 (Q9BYF1 18-740 limits assumed): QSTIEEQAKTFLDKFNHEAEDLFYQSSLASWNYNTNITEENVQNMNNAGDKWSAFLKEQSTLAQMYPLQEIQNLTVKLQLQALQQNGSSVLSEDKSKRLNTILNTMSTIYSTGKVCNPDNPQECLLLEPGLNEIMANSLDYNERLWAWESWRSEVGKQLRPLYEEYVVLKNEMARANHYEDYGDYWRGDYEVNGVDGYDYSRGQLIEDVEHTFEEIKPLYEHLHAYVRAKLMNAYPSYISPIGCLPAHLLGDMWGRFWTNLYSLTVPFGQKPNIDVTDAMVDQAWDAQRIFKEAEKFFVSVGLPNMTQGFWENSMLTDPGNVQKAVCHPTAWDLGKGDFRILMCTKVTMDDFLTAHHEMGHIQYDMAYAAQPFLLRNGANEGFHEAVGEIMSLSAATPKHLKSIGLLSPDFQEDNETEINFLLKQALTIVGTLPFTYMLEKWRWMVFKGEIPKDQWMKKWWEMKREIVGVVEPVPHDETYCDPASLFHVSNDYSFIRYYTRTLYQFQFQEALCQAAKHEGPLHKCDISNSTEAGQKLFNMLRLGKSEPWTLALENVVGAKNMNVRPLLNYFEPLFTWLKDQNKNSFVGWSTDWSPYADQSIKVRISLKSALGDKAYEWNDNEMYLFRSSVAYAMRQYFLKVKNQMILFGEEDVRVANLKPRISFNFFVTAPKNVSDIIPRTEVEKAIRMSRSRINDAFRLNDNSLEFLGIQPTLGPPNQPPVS

Substance “Serum from uninoculated (non-targeted) chickens (antibody)” registered a percent inhibition of RBD:ACE2 binding of less than 5%.

Values taken from patent publication US20210347858A1.
